The DeepSol protein solubility set

Experiment: soluble on expression in E. coli; label from the status in PepcDB or PDB records

Sequence	soluble on expression in E. coli
MSRRHSVVDAYSTVEGKIRDTMRELSALWDEVDMSEAMRLKRVDNAFTHITLLCDDMLSGEKEMIHNLKVSIREDMQNVKKMRLELEMEDFQRPAEIKDGSIALMRHLQSEVKSLETEFQTRHEDQRVLIEKICNLKKRLESDFEFEYEIHAKLNFDTDLPPCMSPATSEMISFITPTRRQAVGPKTSSPKDTQPSTSSSSRTTTPMSKRAMTPSSIASSTPSSAKKVLTRRNQFL	not soluble
MSRRSQWKQVANGMLGDVSKARSVEERENVPEKACGFCKNFSENAYASDGRGYCKKLKVGSDIKVNPPVYVMEGQASLTVLFNSDGAGCEYFNRQDLIDTDGNEVNDPSYRRVQRQMEKAIK	not soluble
MSRRVATITLNPAYDLVGFCPEIERGEVNLVKTTGLHAAGKGINVAKVLKDLGIDVTVGGFLGKDNQDGFQQLFSELGIANRFQVVQGRTRINVKLTEKDGEVTDFNFSGFDVTPADWERFVNDSLSWLGQFDMVCVSGSLPAGVSPEAFTDWMTRLRSQCPCIIFDSSREALVAGLKAAPWLVKPNRRELEIWAGRKLPEMKDVIDAAHALREQGIAHVVISLGAEGALWVNASGEWIAKPPAVDVVSTVGAGDSMVGGLIYGLLMRESSEHTLRLATAVAALAVSQSNVGITDRPQLAAMMARVDLQPFN	not soluble
MSRRYDTIKHLGEGQFANVYLAQDLESGECVAIKKIKLGSREEAKDGINRTAIREIKLLKEIHHDNIIGLRDVIGHRTSIQLVFDFMDTDLEHVIKDKEIILMPAHIKNITMQMLLGLEFLHVHWILHRDLKPNNLLMNKMGRVKLTDFGLARFFGSPNRNYTHQVVTRWYRAPELLFGARSYGVGIDIWSVGCIIAELLLRNPIFPGESDIDQLVKIFNILGCPTPETWPNMTEMNSYVIIKPQTEYMALNYYFSAAPQDLLDLMAGMWTFDPIKRLTCTQSLQMEYFRTQPFCCLDEELPLPKKQQPQKRSRRLDDDGTRPVRRLNFD	not soluble
MSRSKKTRRISDIMPARKADKKPALPISNSKKRKPTRYELDVQAREEKKKRKHKGLPTGSRNVITEQKTASAKVKKDPRVGSRKKVPLMVEFVNKPEKGQMIKPVPLEPSNHATKATVSPEVELTQLENNECLNQLLDQLEAGKVLSTQDQQFVDECLDRVHELIIELGIEDDEENNEDLLLRQFETIDINKFK	not soluble
MSRSLLTNETSELDLLDQRPFEQTDFDILKSYEAVVDGLAMLIGSHCEIVLHSLQDLKCSAIRIANGEHTGRKIGSPITDLALRMLHDMTGADSSVSKCYFTRAKSGVLMKSLTIAIRNREQRVIGLLCINMNLDVPFSQIMNTFIPPETPEVGSAVNFASSVEDLVTQTLEFTIEEVNADRNVSNNAKNRQIVLNLYEKGIFDIKDAINQVADRLNISKHTVYLYIRQFKSGDFQGQDK	not soluble
MSRTLTPLLDRVCEPQDLRAFPESDLARLADELRAETIDVVSVTGGHLGAGLGVIELTVALHYVFNTPEDRIIWDVGHQAYPHKILTGRREKIRTLRQEGGLSGFTKRSESVYDPFGAGHSSTSISAGLGMAVASALKAEKRRNIVAVIGDGAMSAGMAYEAMNNAGALNARLIVVLNDNDMSIAPPTGAMSAHLARLVSRPAYRSLRERVKVLGEKLPKFFLDKARRSEEFARGFLVGGTLFEELGFYYVGPIDGHNLKHLLPVLKNVREYPTGPVLIHVVTHKGKGYAPAEASLDKYHGVNRFDIITGKQVKASSNVLPYTKVFSKALREEASYDDKIVAITAAMPTGTGLDFFAEKFPERMFDVGIAEQHAVTFAAGMACEGYKPFVAIYSTFLQRAYDQIIHDVSIQKLPVRFAIDRAGFVGADGATHAGSFDIVFLTTLPEFVVMAPSDEVELMHMVRTAAAYDQGPISFRYPRGEGIGMDLPQRGEILEIGKGRILHEGNRIALVCFGTRISEVLVAADELSAEGLSTTVADARFAKPLDKDLMRRLAREHEVLVTIEEGAIGGFGAHLLQFLAQEGLLEHGLKVRTLKLPDEYLNHGSQEKVLSRIGLDAVGIVNTVFSALGRKIRTVQRVRV	not soluble
MSRYCSECGKARKACLCPSIVALESAVELIILQHPTEQKRPLGTARILSLSLANCRLLVGEDFREHDELNQLLAEPDVDYYVLYPNEHAQECTKISLTTARKTRVILLDGTWKKAYKMWQINTQLHDLPSLHLPDECVGHYRIRKAPDDTALSTVEAGYHLLQQWQPERDFSPLLKVFDAMIQYQIDQMPEGVFERNYRQLEHHHHHH	not soluble
MSSDIDELRREIDIVDVISEYLNLEKVGSNYRTNCPFHPDDTPSFYVSPSKQIFKCFGCGVGGDAIKFVSLYEDISYFEAALELAKRYGKKLDLEKISKDEKVYVALDRVCDFYRESLLKNREASEYVKSRGIDPKVARKFDLGYAPSSEALVKVLKENDLLEAYLETKNLLSPTKGVYRDLFLRRVVIPIKDPRGRVIGFGGRRIVEDKSPKYINSPDSRVFKKGENLFGLYEAKEYIKEEGFAILVEGYFDLLRLFSEGIRNVVAPLGTALTQNQANLLSKFTKKVYILYDGDDAGRKAMKSAIPLLLSAGVEVYPVYLPEGYDPDEFIKEFGKEELRRLINSSGELFETLIKTARENLEEKTREFRYYLGFISDGVRRFALASEFHTKYKVPMEILLMKIEKNSQEKEIKLSFKEKIFLKGLIELKPKIDLEVLNLSPELKELAVNALNGEEHLLPKEVLEYQVDNLEKLFNNILRDLQKSGKKRKKRGLKNVNT	soluble
MSSDPDKMMSKADKMTKLTLTRWSADWRGATELYEQAANGFRASNKYEKAKVALEKASKGQEMQASPWDAAKHMESAAALAQKLSIWNEVADFYRKASELYVECGRAQPASDALGKAARALEDVKPDDAIQLYTDACEILEEDGRDQMAFDLYRACANVYIKLEKFTDAATFFLRLGVAADKCDATNSQCKAYLSAIILYLYAHDLQQAEKCYNDCSQIDAFLKSDQSRSASRLLTAYNEGDIEEIKKVASASTVSNLDHMIIKLARKLPTGDVTAIQMNTNDDLDEDDLT	soluble
MSSEACTDPYLRCAFNGAALTALGISHSALLAHSPQGCEYLVNNAFASQECDYMETMTLCTKLCVDEIVHGGEDILARTIREVKDLPISALFVLSACGPEIVGDDIVGVCEALQPEVKFRLVPIESAGFRGSQYDGIDIAMDTILKKLVKDDVEKIPGSVCLEHHHHHH	not soluble
MSSEDFYRELKQRSLFEAIHLIEQELLKVESQIGTDALPKNEKLNLKVNASLGFENAQLVSTKPLGKDKLALETNLIGLTGEQGVLPQHYSELALHRLKEGDHAMVDFYDIFNHRLLSLYYRSWQLSQLTIQARAHAKNQRSPLTDCMSSLTGGGNDLALHYGGMYASPTRSKGALKSILECLSGCQIRIHEFQGQWMRLSKSEQTRLVSKSMPEGQFAQLGAGASLGKKAWNINASTTIEFLPKESKQVTNLLPKTNTLKTIKQVAGDFIGKHKHVKWQLTTKHSLLPQVQISKQQGQLGVGSVLKKHERTEDRNITITV	not soluble
MSSFLRPAVSGQDPFTTGNYRAISSHLAITPPVSVVIPAMNEAENLPYVFKSLPDWIHEVVLVDGNSTDGTVEVARELWPDVKVVEQRGKGKGDALITGFEACTGDIIVMVDADGSADGQEIVSYVSALVSGADFAKGSRFANGGGTSDMTPIRKLGNRVLCAAVNAKFGARYTDLCYGYNAFWRHCLDQIDLDCTGFEVETLMNIRVVKAGLKVQEIPSHEYLRIHGASNLRAVRDGLRVLKVILKERSNRRALRSRPHAMQLNSGQGEVSLEHHHHHH	soluble
MSSGVKASPHRFNRFEIKYLITEQDVPALREQLATRMSTDPLSPPGGYRVESLYFDSADLRCYTEKIEGLKFRRKLRIRTYGDGVLTPESTVSVEIKQRVNKVTQKRRLDLPFIYALALGDSTGAAVGEQVDVEKLLEISPENQHALIHEMASFAKNYRLRPIATTKYHREAFVGADAEESSRVTIDHGVSGRDRDFLLGQDLEDRPTVAQGLAVVEIKCDERVPFWLTDMTAQLEMSVIRMSKYCETIEAFHNRPASAFGAVDPIFLEHHHHHH	not soluble
MSSIRVVALDWRYEEILHALGITPVGIVEIGKSKEPQTLKGELEGVTSVGQAKQPNLEVIQSLEPDLILASPTRQAAIMDQLKEIAPTHAYGDTSYTEVLDAMDDIATKVGAEDKAKEVRTRIESKIAQAKNKVEPGTRTALIGWSKNTLYTWVKDSFAGSLLTAAGYEYGYDGEKSAIESKTDVAELTGDKLPEMKLDVMYLYNDIEGFRSSPYADVVSNIVDVEQDTWSRSRGPLAAEAMLDQIINSLEHHHHHH	soluble
